In patent US20230265151A1, “GIP/GLP1 CO-AGONIST COMPOUNDS” (priority 2020, published 2023):

Tests used:
Assay in all cases: cell-based or functional assay
human GIP receptor [1] = target: T1, human GIP receptor (human, UniProt P48546 22-466)
T1 sequence (looked up): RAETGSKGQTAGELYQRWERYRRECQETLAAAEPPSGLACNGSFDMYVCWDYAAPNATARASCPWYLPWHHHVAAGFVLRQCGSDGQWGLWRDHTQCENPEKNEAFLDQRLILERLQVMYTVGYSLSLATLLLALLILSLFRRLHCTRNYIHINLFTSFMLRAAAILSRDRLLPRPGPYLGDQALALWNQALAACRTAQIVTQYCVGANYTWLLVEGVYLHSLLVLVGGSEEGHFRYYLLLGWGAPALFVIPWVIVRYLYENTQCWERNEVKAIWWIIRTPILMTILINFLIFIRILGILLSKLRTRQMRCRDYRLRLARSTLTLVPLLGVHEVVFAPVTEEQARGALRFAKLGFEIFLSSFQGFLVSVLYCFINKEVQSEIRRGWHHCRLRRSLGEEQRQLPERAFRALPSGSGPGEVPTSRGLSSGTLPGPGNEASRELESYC

human GLP-1 receptor [2] = target: human GLP-1 receptor (human, UniProt P43220 24-463)
human glucagon receptor = human glucagon receptor (human, UniProt P47871 26-477)
human GLP-1 receptor [3] = target: human GLP-1 receptor (human, UniProt P43220 24-463); remark: listed apart in the source
human GIP receptor [4] = target: T2, human GIP receptor (human, UniProt P48546 22-466); remark: listed apart in the source
T2 sequence (looked up): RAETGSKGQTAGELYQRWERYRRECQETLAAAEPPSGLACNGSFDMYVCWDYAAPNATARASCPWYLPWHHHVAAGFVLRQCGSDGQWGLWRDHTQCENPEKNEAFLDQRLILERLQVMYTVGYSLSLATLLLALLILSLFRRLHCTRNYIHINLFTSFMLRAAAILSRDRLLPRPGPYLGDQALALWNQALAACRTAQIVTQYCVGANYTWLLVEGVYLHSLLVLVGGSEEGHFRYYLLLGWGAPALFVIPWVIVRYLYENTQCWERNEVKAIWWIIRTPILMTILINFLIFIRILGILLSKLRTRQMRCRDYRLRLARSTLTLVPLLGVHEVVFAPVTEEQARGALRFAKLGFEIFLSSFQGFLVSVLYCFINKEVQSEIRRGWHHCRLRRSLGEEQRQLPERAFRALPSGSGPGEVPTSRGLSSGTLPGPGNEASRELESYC

B1: Example 19 (peptide)
peptide: YXEGTXTSDXSIXLDXKAQXEFIXXLIEGGPSSGAPPPSK
modifications: Aib2, αMeF(2F)6, 4Pal10, αMeL13, Orn16, Aib20, D-Glu24, αMeY25, K17 and K40: K(AEEA2-(γ-Glu)-CO-(CH2)12-CO2H), C-terminal NH2
Human GIP receptor [1]
  EC50, cAMP: 0.0158 nM
  Emax, cAMP: 96.6%
Human GLP-1 receptor [2]
  EC50, cAMP: 1.34 nM
Human glucagon receptor
  EC50, cAMP: > 9950 nM

B2: Example 25 (peptide)
peptide: YXEGTXTSDXSIXLDXKAQXEFIXXLIEGGPSSGAPPPSK
modifications: Aib2, αMeF(2F)6, 4Pal10, αMeL13, Orn16, Aib20, D-Glu24, αMeY25, K17 and K40: K(AEEA2-(γ-Glu)-CO-(CH2)14-CH3), C-terminal NH2
Human GIP receptor [1]
  EC50, cAMP: 0.00243 nM
Human GLP-1 receptor [2]
  EC50, cAMP: 0.00426 nM
Human glucagon receptor
  EC50, cAMP: > 9950 nM

B3: Example 20 (peptide)
peptide: YXEGTXTSDXSIXLDXIAQXEFIXXLIKGGKSSGAPPPS
modifications: Aib2, αMeF(2F)6, 4Pal10, αMeL13, Orn16, Aib20, D-Glu24, αMeY25, K28 and K31: K(AEEA2-(γ-Glu)-CO-(CH2)12-CO2H), C-terminal NH2
Human GIP receptor [1]
  EC50, cAMP: 0.00985 nM
  Emax, cAMP: 98.8%
Human GLP-1 receptor [2]
  EC50, cAMP: 0.552 nM
Human glucagon receptor
  EC50, cAMP: > 9950 nM

B4: Example 464 (peptide)
peptide: YXEGTXTSDXXIXLDXQAQXEFIKXLIKGGPSSGAPPPS
modifications: Y-Aib-EGT-αMeF(2F)-TSD-4Pal-Aib-I-αMeL-LD-Orn-QAQ-Aib-EFIK(2-[2-(2-Amino-ethoxy)-ethoxy]-acetyl)3-(γ-Glu)-(10-(4-carboxyphenoxy)decanoyl)-αMeY-LIK((2-[2-(2-Amino-ethoxy)-ethoxy]-acetyl)3-(γ-Glu)-(10-(4-carboxyphenoxy)decanoyl)GGPSSGAPPPS-NH2)
Human GLP-1 receptor [3]
  cAMP EC50 (1.0% HSA): 4.48 nM
Human GIP receptor [4]
  cAMP EC50 (1.0% HSA): 0.316 nM
  cAMP Emax (1.0% HSA): 95.5%

B5: Example 27 (peptide)
peptide: YXEGTXTSDKSIXLDXKAQXEFIXXLIEGGPSSGAPPPS
modifications: Aib2, αMeF(2F)6, αMeL13, Orn16, Aib20, D-Glu24, αMeY25, K10 and K17: K(AEEA2-(γ-Glu)-CO-(CH2)12-CO2H), C-terminal NH2
Human GIP receptor [1]
  EC50, cAMP: 0.116 nM
  Emax, cAMP: 88.8%
Human GLP-1 receptor [2]
  EC50, cAMP: 2.77 nM
Human glucagon receptor
  EC50, cAMP: > 9950 nM

B6: Example 29 (peptide)
peptide: YXEGTXTSDKSIXLDXKAQXEFIXXLIEGGPSSGAPPPS
modifications: Aib2, αMeF(2F)6, αMeL13, Orn16, Aib20, D-Glu24, αMeY25, K10 and K17: K(AEEA2-(γ-Glu)-CO-(CH2)14-CH3), C-terminal NH2
Human GIP receptor [1]
  EC50, cAMP: 0.00252 nM
Human GLP-1 receptor [2]
  EC50, cAMP: 0.00468 nM
  Emax, cAMP: 100%
Human glucagon receptor
  EC50, cAMP: > 9950 nM

B7: Example 411 (peptide)
peptide: YXEGTXTSDXXIXLDXQAQXEFIKXLIKGGPSSGAPPPS
modifications: Y-Aib-EGT-αMeF(2F)-TSD-4Pal-Aib-I-αMeL-LD-Orn-QAQ-Aib-EFIK((2-[2-(2-Amino-ethoxy)-ethoxy]-acetyl)2-(γ-Glu)-CO-(CH2)12-CO2H)-αMeY-LIK((2-[2-(2-Amino-ethoxy)-ethoxy]-acetyl)2-(γ-Glu)-CO-(CH2)12-CO2H)GGPSSGAPPPS-NH2
Human GLP-1 receptor [3]
  cAMP EC50 (1.0% HSA): 11.4 nM
Human GIP receptor [4]
  cAMP EC50 (1.0% HSA): 1.09 nM

B8: Example 35 (peptide)
peptide: YXEGTXTSDXSIXLDXKAQXEFIXXLIEGGKSSGAPPPS
modifications: Aib2, αMeF(2F)6, 4Pal10, αMeL13, Orn16, Aib20, D-Glu24, αMeY25, K17 and K31: K(AEEA-(εK)-(γ-Glu)-CO-(CH2)12-CO2H), C-terminal NH2
Human GIP receptor [1]
  EC50, cAMP: 0.0162 nM
Human GLP-1 receptor [2]
  EC50, cAMP: 0.612 nM
Human glucagon receptor
  EC50, cAMP: > 9950 nM

B9: Example 34 (peptide)
peptide: YXEGTXTSDXSIXLDXKAQXEFIXXLIEGGKSSGAPPPS
modifications: Aib2, αMeF(2F)6, 4Pal10, αMeL13, Orn16, Aib20, D-Glu24, αMeY25, K17 and K31: K(AEEA2-(εK)-(γ-Glu)-CO-(CH2)12-CO2H), C-terminal NH2
Human GIP receptor [1]
  EC50, cAMP: 0.0148 nM
Human GLP-1 receptor [2]
  EC50, cAMP: 1 nM
Human glucagon receptor
  EC50, cAMP: > 9950 nM

B10: Example 37 (peptide)
peptide: YXEGTXTSDXSIXLDXKAQXEFIXXLIEGGKSSGAPPPS
modifications: Aib2, αMeF(2F)6, 4Pal10, αMeL13, Orn16, Aib20, D-Glu24, αMeY25, K17 and K31: K((εK)-AEEA2-(γ-Glu)-CO-(CH2)12-CO2H), C-terminal NH2
Human GIP receptor [1]
  EC50, cAMP: 0.0211 nM
Human GLP-1 receptor [2]
  EC50, cAMP: 0.909 nM
Human glucagon receptor
  EC50, cAMP: > 9950 nM

B11: Example 28 (peptide)
peptide: YXEGTXTSDXSKXLDXKAQXEFIXXLIEGGPSSGAPPPS
modifications: Aib2, αMeF(2F)6, 4Pal10, αMeL13, Orn16, Aib20, D-Glu24, αMeY25, K12 and K17: K(AEEA2-(γ-Glu)-CO-(CH2)12-CO2H), C-terminal NH2
Human GIP receptor [1]
  EC50, cAMP: 0.0554 nM
  Emax, cAMP: 95.4%
Human GLP-1 receptor [2]
  EC50, cAMP: 2.65 nM
Human glucagon receptor
  EC50, cAMP: > 9950 nM

B12: Example 21 (peptide)
peptide: YXEGTXTSDXSIXLDXKAQXKFIXXLIEGGPSSGAPPPS
modifications: Aib2, αMeF(2F)6, 4Pal10, αMeL13, Orn16, Aib20, D-Glu24, αMeY25, K17 and K21: K(AEEA2-(γ-Glu)-CO-(CH2)14-CH3), C-terminal NH2
Human GIP receptor [1]
  EC50, cAMP: 0.00347 nM
Human GLP-1 receptor [2]
  EC50, cAMP: 0.00655 nM
Human glucagon receptor
  EC50, cAMP: > 9950 nM

B13: Example 1 (peptide)
peptide: YXEGTXTSDXSIXLDXKAQXEFIXXLIEGGKSSGAPPPS
modifications: Aib2, αMeF(2F)6, 4Pal10, αMeL13, Orn16, Aib20, D-Glu24, αMeY25, K17 and K31: K(AEEA2-(γ-Glu)-CO-(CH2)12-CO2H), C-terminal NH2
Human GIP receptor [1]
  EC50, cAMP: 0.0145 nM
  Emax, cAMP: 90.2%
Human GLP-1 receptor [2]
  EC50, cAMP: 0.925 nM
Human glucagon receptor
  EC50, cAMP: > 9950 nM

B14: Example 36 (peptide)
peptide: YXEGTXTSDXSIXLDXKAQXEFIXXLIEGGKSSGAPPPS
modifications: Aib2, αMeF(2F)6, 4Pal10, αMeL13, Orn16, Aib20, D-Glu24, αMeY25, K17 and K31: K((εK)-AEEA-(γ-Glu)-CO-(CH2)12-CO2H), C-terminal NH2
Human GIP receptor [1]
  EC50, cAMP: 0.0185 nM
Human GLP-1 receptor [2]
  EC50, cAMP: 0.536 nM
Human glucagon receptor
  EC50, cAMP: > 9950 nM

B15: Example 6 (peptide)
peptide: YXEGTXTSDXSIXLDXKAQXEFIXXLIEGGKSSGAPPPS
modifications: Aib2, αMeF(2F)6, 4Pal10, αMeL13, Orn16, Aib20, D-Glu24, αMeY25, K17 and K31: K(AEEA2-(γ-Glu)-CO-(CH2)10-CO2H), C-terminal NH2
Human GIP receptor [1]
  EC50, cAMP: 0.0477 nM
Human GLP-1 receptor [2]
  EC50, cAMP: 2.3 nM
Human glucagon receptor
  EC50, cAMP: > 9950 nM

B16: Example 23 (peptide)
peptide: YXEGTXTSDXSIXLDXKAQXEFIXXLIKGGPSSGAPPPS
modifications: Aib2, αMeF(2F)6, 4Pal10, αMeL13, Orn16, Aib20, D-Glu24, αMeY25, K17 and K28: K(AEEA2-(γ-Glu)-CO-(CH2)14-CH3), C-terminal NH2
Human GIP receptor [1]
  EC50, cAMP: 0.00299 nM
Human GLP-1 receptor [2]
  EC50, cAMP: 0.00722 nM
Human glucagon receptor
  EC50, cAMP: > 9950 nM
